From US20050287144A1

Target: endogenous NIK of mouse embryonic fibroblast cells (mouse) (UniProt Q9WUL6)
Assay: cell-based or functional assay

Sequence of endogenous NIK of mouse embryonic fibroblast cells (mouse) (Q9WUL6 whole entry): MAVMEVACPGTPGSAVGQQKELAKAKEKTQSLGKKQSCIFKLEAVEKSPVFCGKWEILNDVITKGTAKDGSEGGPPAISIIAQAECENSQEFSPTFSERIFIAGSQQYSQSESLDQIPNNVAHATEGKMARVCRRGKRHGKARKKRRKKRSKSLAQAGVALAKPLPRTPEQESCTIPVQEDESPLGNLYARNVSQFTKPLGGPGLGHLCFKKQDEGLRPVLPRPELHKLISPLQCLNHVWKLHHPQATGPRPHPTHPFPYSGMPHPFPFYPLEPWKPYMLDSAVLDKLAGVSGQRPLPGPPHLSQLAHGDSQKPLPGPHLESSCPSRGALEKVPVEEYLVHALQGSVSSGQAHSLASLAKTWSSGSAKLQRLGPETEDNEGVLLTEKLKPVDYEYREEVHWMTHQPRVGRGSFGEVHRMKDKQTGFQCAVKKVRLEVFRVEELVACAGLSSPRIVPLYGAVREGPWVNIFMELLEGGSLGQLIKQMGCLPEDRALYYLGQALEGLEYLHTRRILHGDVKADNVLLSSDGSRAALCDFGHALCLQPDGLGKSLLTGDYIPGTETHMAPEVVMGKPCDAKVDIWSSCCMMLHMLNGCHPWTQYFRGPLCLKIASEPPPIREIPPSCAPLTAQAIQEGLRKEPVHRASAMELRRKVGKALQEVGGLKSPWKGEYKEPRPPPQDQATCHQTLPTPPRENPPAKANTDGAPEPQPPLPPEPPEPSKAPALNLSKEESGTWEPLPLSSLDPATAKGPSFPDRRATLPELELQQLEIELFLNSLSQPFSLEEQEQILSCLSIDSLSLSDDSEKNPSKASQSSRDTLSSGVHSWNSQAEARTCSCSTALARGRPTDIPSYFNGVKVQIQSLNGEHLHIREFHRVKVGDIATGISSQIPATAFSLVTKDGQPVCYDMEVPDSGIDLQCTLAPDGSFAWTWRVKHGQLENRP

Substance	NF-κB activation by LTβ, luciferase reporter, mouse embryonic fibroblast cells [fold]	decrease in NF-κB activation by LTβ, luciferase reporter, mouse embryonic fibroblast cells [%]
GST fusion protein with the intracellular domain of cγc (from UniProt P31785 284-369)	2.5	
GST-41MDD fusion protein (from UniProt P31785 329-369)		50
